Data reported in patent US20190085054A1 (Amgen, published 2019).
Numbering of substitutions follows the chain as printed. Names and notes keep the numbering of the source. Each block holds one binder with its values, some of them ahead of it.

How the values were obtained:
Assay in all cases: cell-based or functional assay
[1] = molecular target: T1, catalytic domain of human MMP9 (human, UniProt P14780 107-444, limits assumed)
[2] = molecular target: T2, human MMP2 (pro-MMP2 activated with APMA) (human, UniProt P08253 30-660)
T2 sequence (looked up): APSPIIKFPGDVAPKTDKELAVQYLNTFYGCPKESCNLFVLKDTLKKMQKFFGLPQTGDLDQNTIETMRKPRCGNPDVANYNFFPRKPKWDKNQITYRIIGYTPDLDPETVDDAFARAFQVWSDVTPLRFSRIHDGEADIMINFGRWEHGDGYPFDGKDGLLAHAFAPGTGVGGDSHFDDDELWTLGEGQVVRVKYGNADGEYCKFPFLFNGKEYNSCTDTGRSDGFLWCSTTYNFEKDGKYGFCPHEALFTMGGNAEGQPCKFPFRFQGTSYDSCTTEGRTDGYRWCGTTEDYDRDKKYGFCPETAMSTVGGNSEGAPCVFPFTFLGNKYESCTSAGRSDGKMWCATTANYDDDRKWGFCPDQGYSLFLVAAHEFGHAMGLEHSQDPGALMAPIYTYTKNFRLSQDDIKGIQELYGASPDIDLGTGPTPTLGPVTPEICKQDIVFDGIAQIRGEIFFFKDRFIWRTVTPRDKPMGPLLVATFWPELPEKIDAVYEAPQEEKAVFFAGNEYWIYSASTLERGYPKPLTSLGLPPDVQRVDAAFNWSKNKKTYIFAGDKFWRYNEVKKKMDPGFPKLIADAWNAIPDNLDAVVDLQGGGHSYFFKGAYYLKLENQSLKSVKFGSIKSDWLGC

[3] = molecular target: active MMP13 (UniProt P45452 20-471, limits assumed)
[4] = molecular target: T1, catalytic domain of human MMP9; remark: listed apart in the source
[5] = molecular target: T2, human MMP2 (pro-MMP2 activated with …); remark: listed apart in the source

T1 sequence (P14780 107-444 limits assumed): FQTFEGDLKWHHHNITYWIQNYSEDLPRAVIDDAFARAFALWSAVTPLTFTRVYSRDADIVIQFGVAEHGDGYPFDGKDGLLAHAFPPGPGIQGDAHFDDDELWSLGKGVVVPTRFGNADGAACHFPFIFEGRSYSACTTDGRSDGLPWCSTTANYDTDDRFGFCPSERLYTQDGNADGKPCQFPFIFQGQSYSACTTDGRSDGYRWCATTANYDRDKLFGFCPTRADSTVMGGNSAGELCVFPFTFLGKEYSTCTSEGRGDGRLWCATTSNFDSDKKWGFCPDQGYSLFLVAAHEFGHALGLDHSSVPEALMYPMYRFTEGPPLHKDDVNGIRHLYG

- MMP9 IC50 [1]: 1 nM
- MMP2 IC50 [2]: 0.6 nM
- MMP13 IC50 [3]: 0.9 nM
B1: wild-type TIMP-3 (native human tissue inhibitor of metalloproteinase 3) (other)
chain: CTCSPSHPQDAFCNSDIVIRAKVVGKKLVKEGPFGTLVYTIKQMKMYRGFTKMPHVQYIHTEASESLCGLKLEVNKYQYLLTGRVYDGKMYTGLCNFVERWDQLTLSQRKGLNYRYHLGCNCKIKSCYYLPCFVTSKNECLWTDMLSNFGYPGYQSKHYACIRQKGGYCSWYRGWAPPDKSIINATDP

- MMP9 Inhibition Shift [4]: 15 fold
- MMP2 Inhibition Shift [5]: 5 fold
B2: TIMP-3 mutein K45N, V47T, F57N, K94N, E96T, R138T, G173T (other)
chain: B1 chain with K22N, V24T, F34N, K71N, E73T, R115T, G150T

- MMP9 Inhibition Shift [4]: 1 fold
- MMP2 Inhibition Shift [5]: 2 fold
B3: TIMP-3 mutein K45E, K50N, V52T, K94N, E96T, D110N, K112T, R138T, G173T (other)
chain: B1 chain with K22E, K27N, V29T, K71N, E73T, D87N, K89T, R115T, G150T

- MMP9 Inhibition Shift [4]: 70 fold
- MMP2 Inhibition Shift [5]: 1 fold
B4: TIMP-3 mutein K50N, V52T, F57N, K94N, E96T, D110N, K112T, R138T (other)
chain: B1 chain with K27N, V29T, F34N, K71N, E73T, D87N, K89T, R115T

- MMP9 Inhibition Shift [4]: 128 fold
- MMP2 Inhibition Shift [5]: 1 fold
B5: TIMP-3 mutein K45E, F57N, K94N, E96T, D110N, K112T, R138T (other)
chain: B1 chain with K22E, F34N, K71N, E73T, D87N, K89T, R115T

- MMP9 Inhibition Shift [4]: 12 fold
- MMP2 Inhibition Shift [5]: 3 fold
B6: TIMP-3 mutein K45N, V47T, F57N, K94N, E96T, D110N, K112T, G173T, R186Q, K188Q (other)
chain: B1 chain with K22N, V24T, F34N, K71N, E73T, D87N, K89T, G150T, R163Q, K165Q

- MMP9 Inhibition Shift [4]: 8 fold
- MMP2 Inhibition Shift [5]: 3 fold
B7: TIMP-3 mutein K45N, V47T, F57N, K94N, E96T, D110N, K112T, R186N, K188T (other)
chain: B1 chain with K22N, V24T, F34N, K71N, E73T, D87N, K89T, R163N, K165T

- MMP9 Inhibition Shift [4]: 24 fold
- MMP2 Inhibition Shift [5]: 6 fold
B8: TIMP-3 mutein K45S, F57N, K94N, E96T, D110N, K112T, R138T, G173T (other)
chain: B1 chain with K22S, F34N, K71N, E73T, D87N, K89T, R115T, G150T

- MMP9 Inhibition Shift [4]: 16 fold
- MMP2 Inhibition Shift [5]: 8 fold
B9: TIMP-3 mutein K45S, F57N, T63N, K65T, K94N, E96T, R138T, G173T (other)
chain: B1 chain with K22S, F34N, T40N, K42T, K71N, E73T, R115T, G150T

- MMP9 Inhibition Shift [4]: 8 fold
- MMP2 Inhibition Shift [5]: 6 fold
B10: TIMP-3 mutein K45N, V47T, F57N, V97N, K99T, R138T, G173T (other)
chain: B1 chain with K22N, V24T, F34N, V74N, K76T, R115T, G150T

- MMP9 Inhibition Shift [4]: 18 fold
- MMP2 Inhibition Shift [5]: 5 fold
B11: TIMP-3 mutein K45S, F57N, H78N, Q80T, K94N, E96T, R138T, G173T (other)
chain: B1 chain with K22S, F34N, H55N, Q57T, K71N, E73T, R115T, G150T

- MMP9 Inhibition Shift [4]: 8 fold
- MMP2 Inhibition Shift [5]: 4 fold
B12: TIMP-3 mutein K45E, F57N, Q126N, R138T, G173T (other)
chain: B1 chain with K22E, F34N, Q103N, R115T, G150T

- MMP9 Inhibition Shift [4]: 16 fold
- MMP2 Inhibition Shift [5]: 2 fold
B13: TIMP-3 mutein K45S, F57N, T63N, K65T, K94N, E96T, G173T (other)
chain: B1 chain with K22S, F34N, T40N, K42T, K71N, E73T, G150T

- MMP9 Inhibition Shift [4]: 1 fold
- MMP2 Inhibition Shift [5]: 2 fold
B14: TIMP-3 mutein K50N, V52T, K94N, E96T, R138T, G173T (other)
chain: B1 chain with K27N, V29T, K71N, E73T, R115T, G150T

- MMP9 Inhibition Shift [4]: 25 fold
- MMP2 Inhibition Shift [5]: 7 fold
B15: TIMP-3 mutein K45N, V47T, F57N, K75N, P77T, K94N, E96T, R138T, G173T (other)
chain: B1 chain with K22N, V24T, F34N, K52N, P54T, K71N, E73T, R115T, G150T

- MMP9 Inhibition Shift [4]: 5 fold
- MMP2 Inhibition Shift [5]: 1 fold
B16: TIMP-3 mutein K45E, K49E, F57N, K94N, E96T, D110N, K112T, G173T, R186N, K188T (other)
chain: B1 chain with K22E, K26E, F34N, K71N, E73T, D87N, K89T, G150T, R163N, K165T

- MMP9 Inhibition Shift [4]: 91 fold
- MMP2 Inhibition Shift [5]: 2 fold
B17: TIMP-3 mutein K50N, V52T, F57N, K94N, E96T, R138T, G173T (other)
chain: B1 chain with K27N, V29T, F34N, K71N, E73T, R115T, G150T
